The values below come from patent publication US8785185B2, “Differentiation of human embryonic stem cells” (Janssen Biotech, Inc., priority 2009, dated 2014).

Format in all cases: cell-based
The test system of test [1] is human embryonic stem cell line H1. As to the kind of experiment: Immunofluorescence analysis of marker expression at stage 3 day 4 (FIG. 2, FIG. 3). As for the experimental part: (§1) RPMI medium (Catalogue #22400, Invitrogen, Ca) supplemented with 2% BSA (Catalog #152401, MP Biomedical, Ohio), and 100 ng/ml activin A (R&D Systems, MN) plus 20 ng/ml WNT-3a (Catalog #1324-WN-002, R&D Systems, MN) plus 8 ng/ml of bFGF (Catalog #100-18B, PeproTech, NJ), for one day followed by treatment with RPMI media supplemented with 2% BSA and 100 ng/ml activin A plus 8 ng/ml of bFGF for an additional two days (Stage 1), then • b. DMEM/F12 (Catalogue #11330, Invitrogen, Ca)+2% BSA+50 ng/ml FGF7 for three days (Stage 2), then • c. Either Treatment 1: DMEM (high glucose)+1% B27 (Invitrogen, CA)+50 ng/ml FGF7, 0.25 μM Cyclopamine-KAAD, 2 μM retinoic acid (RA) and 100 ng/ml of Noggin for four days, or • d. Treatment 2: DMEM (high glucose)+1% B27 (Invitrogen, CA)+50 ng/ml FGF7, 0.25 μM Cyclopamine-KAAD, 2 μM retinoic acid (RA), 100 ng/ml of Noggin, 20 ng/ml activin A, for four days, or • e. Treatment 3: DMEM (high glucose)+1% B27 (Invitrogen, CA)+50 ng/ml FGF7, 0.25 μM Cyclopamine-KAAD, 2 μM retinoic acid (RA), 100 ng/ml of Noggin, 1 μM ALK5 inhibitor II, for four days.
(§2) Cultures were sampled in duplicate on stage 3 day 4, and analyzed for expression of pancreatic markers using real-time PCR. Cultures also were fixed in parallel for immunofluorescence analysis.
Treatment 1 (FGF7, retinoic acid and Noggin) induced the expression of NKX6.1 and NGN3.
This is in contrast with PDX1 expressing cells generated by using DMEM/F12 supplemented with 1% B27 (Invitrogen, CA)+50 ng/ml FGF7, 0.25 μM Cyclopamine-KAAD, 2 μM retinoic acid (RA), 100 ng/ml of Noggin, 20 ng/ml activin A, wherein most PDX1 expressing cells also expressed CDX2.

Test [2] has the same test system. Description: Real-time PCR of pancreatic markers at stage 3 day 4, Treatments 1-3 (Table 1). As to conditions: normalized to treatment 1, stage 3 treatment for four days. How it is done: as §1, §2
Test [3] has the same test system. As to the kind of experiment: Real-time PCR of pancreatic markers at stage 3 day 4, activin A 20 or 50 ng/ml added at stage 3 (FIG. 1). As to conditions: 20 or 50 ng/ml activin A with FGF7, cyclopamine-KAAD, retinoic acid, Noggin. How it is done: Briefly, cells of the human embryonic stem cell line H1 were cultured on MATRIGEL™ (1:30 dilution) coated dishes and RPMI medium supplemented with 2% BSA, 100 ng/ml activin A, 20 ng/ml WNT-3a, 8 ng/ml of bFGF for one day, followed by treatment with RPMI media supplemented with 2% BSA, 100 ng/ml activin A, 8 ng/ml of bFGF for an additional two days (Stage 1), then • a. DMEM/F12+2% BSA+50 ng/ml FGF7+0.25 μM Cyclopamine-KAAD for three days (Stage 2), then • b. DMEM-High glucose+1% B27+50 ng/ml FGF7+0.25 μM Cyclopamine-KAAD+2 μM Retinoic acid (RA)+100 ng/ml of Noggin+20 ng/ml activin A or 50 ng/ml activin A for four days (Stage 3).
As a control, separate populations of cells were treated with DMEM High glucose, supplemented with 1% B27, 50 ng/ml FGF7, 0.25 μM Cyclopamine-KAAD, 2 μM retinoic acid (RA), and 100 ng/ml of Noggin.
Cultures were sampled in duplicate on stage 3 day 4, and analyzed for expression of pancreatic markers using real-time PCR.
A down-regulation of NGN3 expression was also observed in the cells at stage 3 day 4.

`Cc1cccc(-c2[nH]ncc2-c2ccc3ncccc3n2)n1` [ALK5 inhibitor II]: the “expression of NGN3 / number of NGN3 expressing cells” value in test [1] is listed as “significantly increased”. In test [2], the “relative expression level of NKX6.1” value is listed as “decrease” and the “relative expression level of PDX1” value is on record as “No significant impact”.

B1: activin A (protein, UniProt P08476 311-426, looked up)
Inhibin beta A chain: GLECDGKVNICCKKQFFVSFKDIGWNDWIIAPSGYHANYCEGECPSHIAGTSGSSLSFHSTVINHYRMRGHSPFANLKSCCVPTKLRPMSMLYYDDGQNIIKKDIQNMIVEECGCS
modifications: Inhibin beta A chain
notes: a member of the TGF-β superfamily (R&D Systems)
On to B1, for which, in test [1], the “expression of NGN3 / number of NGN3 expressing cells” value is given as “blocked” and the “expression of NKX6.1 / number of NKX6.1 expressing cells” value is given as “significantly increased”. In addition, the NGN3 expression result in test [3] is “down-regulation”. Also, in test [3] (real-time PCR, versus cells receiving no activin A), the NKX6.1 expression result was “increase”.
